The record followed here is paper PMC6555648 (Molecular cell, 2019).

Where no end group is shown, it is not given here.

Assay [1] has as its target T1, mouse REC114 residues 1–158 (REC114N) (mouse, UniProt Q9CWH4 1-158, selenomethionine derivative (in the crystals)).
T1 sequence (looked up): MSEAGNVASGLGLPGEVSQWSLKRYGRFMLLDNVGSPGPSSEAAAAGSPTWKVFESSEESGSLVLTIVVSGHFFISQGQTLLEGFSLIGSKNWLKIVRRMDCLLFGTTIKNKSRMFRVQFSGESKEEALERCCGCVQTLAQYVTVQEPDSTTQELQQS
Put plainly: crystal structure.

In assay [2] the target is T1, mouse REC114 residues 1–158 (REC114N). Put plainly: pull-down.

As for SRESMQTIPHYLQIKEILQISKQELLPCHVMEQHWKFYVGRSHSEALLSW (domain or fragment, UniProt A0A140LI88 1808-1857, looked up, also: selenomethionine derivative) [mouse ANKRD31 residues 1808–1857 (ANKRD31C)], the binding result in assay [1] is “binds”.

On to SRESMQTIPHYLQIKEILQISKQELLPCHVMEQHWKFYVGRSHSEALLSW (domain or fragment, mouse, UniProt A0A140LI88 1808-1857, looked up) [GST-tagged ANKRD31C], for which the binding result in assay [2] is given as “binds”.
